Consider five molecules from US12570744 (AstraZeneca / MedImmune, dated 2026).

The target of assay [1] is T1, human TIGIT expressed on the cell surface (human, UniProt Q495A1 22-244).
T1 construct: whole, on cells; also called Jurkat PD-1^-TIGIT^+ cells; TIGIT^+ Jurkat cells
T1 sequence (looked up): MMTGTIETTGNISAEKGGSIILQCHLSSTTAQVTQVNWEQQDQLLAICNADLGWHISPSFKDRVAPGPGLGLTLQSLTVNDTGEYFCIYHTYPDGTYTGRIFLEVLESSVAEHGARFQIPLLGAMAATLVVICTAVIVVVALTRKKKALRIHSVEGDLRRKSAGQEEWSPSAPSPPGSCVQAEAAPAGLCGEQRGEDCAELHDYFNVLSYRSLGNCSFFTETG
Kind of assay: flow cytometry on TIGIT^+ Jurkat cells, Experiment #1. For orientation: Flow cytometry measures light scatter and fluorescence of single cells or particles in a stream.

In assay [2] the target is T1, human TIGIT expressed on the cell …. Kind of assay: flow cytometry on TIGIT^+ Jurkat cells, mean of two experiments.
Assay [3] shares this target. In words: flow cytometry on TIGIT^+ Jurkat cells, Experiment #2.
Assay [4] has the same target. In words: cell-based or functional assay.
For assay [5] the target is unchanged. Kind of assay: flow cytometry on TIGIT^+ Jurkat cells (the reference itself).
Assay [6] has as its target T2, cynomolgus TIGIT overexpressed on 293 cells (cynomolgus, UniProt A0A7N9I9V4 89-312).
T2 construct: whole, on cells
Kind of assay: flow cytometry (MFI) on 293 cells overexpressing cynomolgus TIGIT; Kd row of the table under the graph, the concentration axis is [nM].

The target of assay [7] is T1, human TIGIT expressed on the cell …. Kind of assay: flow cytometry (MFI) on 293 cells overexpressing human TIGIT.
For assay [8] the target is unchanged. Kind of assay: flow cytometry (MFI) on 293 cells overexpressing human TIGIT; Kd row of the table under the graph, the concentration axis is [nM].
The target of assay [9] is T3, cyTIGIT (cynomolgus TIGIT, recombinant) (cynomolgus, UniProt A0A7N9I9V4 89-209).
T3 construct: Ligand in the BIAcore assay; The construct is not described
Kind of assay: SPR (BIAcore T200), PD-1/TIGIT DuetMab sample, cyTIGIT as ligand. The method, then: (§1) Binding experiments were carried out using a BIAcore T200 instrument (BIAcore).
A general note: SPR reads the build-up and loss of mass on a sensor chip optically.

The target of assay [10] is T4, muTIGIT (mouse TIGIT, recombinant) (mouse (printed as 'mu'), UniProt P86176 29-148, limits assumed).
T4 construct: Ligand in the BIAcore assay; The construct is not described
T4 sequence (looked up): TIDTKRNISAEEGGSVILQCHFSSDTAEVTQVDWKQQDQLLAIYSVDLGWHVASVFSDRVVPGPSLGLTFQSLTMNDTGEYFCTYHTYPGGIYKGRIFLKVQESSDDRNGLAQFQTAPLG
In words: SPR (BIAcore T200), PD-1/TIGIT DuetMab sample, muTIGIT as ligand. The method, then: as §1

Assay [11] has as its target T5, recombinant human TIGIT protein (human, UniProt Q495A1 22-141).
T5 construct: In the Octet assay it was used biotinylated on streptavidin sensors or in solution; Construct and tags are not described; also called huTIGIT; human TIGIT antigen
T5 sequence (looked up): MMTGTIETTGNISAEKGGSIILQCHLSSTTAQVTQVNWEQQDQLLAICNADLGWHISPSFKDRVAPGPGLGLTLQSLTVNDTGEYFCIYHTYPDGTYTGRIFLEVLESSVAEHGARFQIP
In words: SPR (BIAcore T200), PD-1/TIGIT DuetMab sample, huTIGIT as ligand. The method, then:
as §1

Substitutions are numbered along the chain they refer to.

T2 sequence (A0A7N9I9V4 entry or part of it): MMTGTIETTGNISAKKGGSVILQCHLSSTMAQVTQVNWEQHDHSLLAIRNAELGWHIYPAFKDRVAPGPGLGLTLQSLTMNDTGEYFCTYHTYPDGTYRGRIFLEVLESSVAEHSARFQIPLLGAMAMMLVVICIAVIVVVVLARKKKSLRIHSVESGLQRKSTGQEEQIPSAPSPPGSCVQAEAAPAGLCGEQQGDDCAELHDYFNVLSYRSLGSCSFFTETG
T3 sequence (A0A7N9I9V4 entry or part of it): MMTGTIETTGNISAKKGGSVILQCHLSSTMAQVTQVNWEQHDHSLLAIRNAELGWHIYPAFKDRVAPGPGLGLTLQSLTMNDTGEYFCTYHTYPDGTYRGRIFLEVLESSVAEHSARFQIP

B1: monospecific anti-TIGIT (VAR1) bivalent mAb (antibody, V domains shown)
VH: QVQLVESGGGVVQPGRSLRLSCAASGFTFSSYAMHWVRQAPGKGLEWVAVISYAGEVKYYADSVKGRFTISRDNSKNTLYLQMNSLRAEDTAVYYCARDPLPLHYYGMDVWGQGTTVTVSS
VL: QSVLTQPPSASGTPGQRVTISCSGSSSNIGRRPVNWYQQLPGTAPKLLIYSQNQRPSGVPDRFSGSQSGTSASLAISGLQSEDEADYFCAVWDDIGRVLQLGGGTQLTVL
notes: Bivalent mAb; also called anti-TIGIT mAb; bivalent anti-TIGIT antibody
As usually defined, the EC50 is the concentration needed to bring the measured effect to its halfway point. Read a low EC50 as a more potent agent. In the case of B1, in assay [1], the EC50 came to 0.092 nM. This molecule had an EC50 in assay [2] of 0.119 nM. Further, in assay [3], a half-maximal response (EC50) required 0.147 nM. In addition, in assay [4], the “EC50 (nM), NFAT-luciferase reporter, Experiment #1” value was found to be 1.59 nM; the “EC50 (nM), NFAT-luciferase reporter, Experiment #2” value came out at 2.85 nM; the “Fold Change of Mean EC50 vs. Anti-TIGIT” value came out at 1 fold; the “Mean EC50 (nM), NFAT-luciferase reporter” value turned out to be 2.22 nM. In addition, in assay [5], the “Fold Change vs. anti-TIGIT (mean EC50)” value stood at 1 fold.

B2: VL GL + VH WT (VAR1 variant DuetMab) (bispecific antibody)
chain 1: EVQLVESGGGLVQPGGSLRLSCAASGFTFSDYGMHWVRQAPGKGLEWVAYISSGSYTIYSADSVKGRFTISRDNAKNSLYLQMNSLRAEDTAVYYCARRAPNSFYEYYFDYWGQGTTVTVSS
chain 2: QIVLTQSPATLSLSPGERATLSCSASSKHTNLYWSRHMYWYQQKPGQAPRLLIYLTSNRATGIPARFSGSGSGTDFTLTISSLEPEDFAVYYCQQWSSNPFTFGQGTKLEIK
chain 3: B1 VH with Q1E, S7T, V11L, V12I
chain 4: B1 VL with I29M
A word on the Kd: it is a measure of binding affinity in units of concentration. By EC50 (read off the curve) is commonly meant the concentration at which the effect is half-maximal. As for B2, the dissociation constant Kd is 23.6 nM in assay [6] and 4.43 nM in assay [8]. Moreover, the “EC50 (read off the curve)” value in assay [7] was about 4 nM.

B3: VL WT + VH GL (VAR1 variant DuetMab) (bispecific antibody, V domains shown)
VH 1: B2 chain 1
VL 1: B2 chain 2
VH 2: B1 VH
VL 2: B1 VL with V3A, P8R, T13N, I29M, L40I, A75T, D86E, T108A
B3: the Kd in [6] was found to be 10.8 nM; in [8] it was 3.09 nM.

B4: VL GL + VH GL (VAR1 variant DuetMab) (bispecific antibody)
chain 1: B2 chain 1
chain 2: B2 chain 2
chain 3: B1 VH
chain 4: B1 VL with I29M
As for B4, the Kd in [6] is 14.7 nM; in assay [8] it was 3.28 nM.

B5: PD1-TIGIT duetMab LO115/P-VAR1(VHWT-VLWT) (bispecific antibody, V domains shown)
VH 1: B2 chain 1
VL 1: B2 chain 2
VH 2: B1 VH with Q1E, S7T, V11L, V12I
VL 2: B1 VL with V3A, P8R, T13N, I29M, L40I, A75T, D86E, T108A
notes: DuetMab format; also called parental VAR1; P-VAR1 w.t; DuetMab
A word on the koff: it is the rate constant with which the complex falls apart. The kon is a measure of how fast the partners come together. As for B5, the Kd was 32.1 nM in [9]; 2.3 nM in assay [10]; 11.2 nM in assay [6]; 0.0099 nM in assay [11]; 2.56 nM in assay [8]. For the same molecule, the dissociation rate constant (koff) in [9] amounted to 0.0329 s⁻¹; in [10], 0.00378 s⁻¹; in [11] it was 4.64e-05 s⁻¹. Moreover, the kon in assay [9] turned out to be 1.03e+06 M⁻¹ s⁻¹; in assay [10] it was 1.66e+06 M⁻¹ s⁻¹; in assay [11], 4.67e+06 M⁻¹ s⁻¹. The “EC50 (read off the curve)” value in assay [7] was about 2 nM.
